T1: mouse IL-10 receptor (IL-10R) on T cells and B cells of C57BL/6 mouse splenocytes (mouse) (UniProt Q61727)
T1 sequence (looked up) 1: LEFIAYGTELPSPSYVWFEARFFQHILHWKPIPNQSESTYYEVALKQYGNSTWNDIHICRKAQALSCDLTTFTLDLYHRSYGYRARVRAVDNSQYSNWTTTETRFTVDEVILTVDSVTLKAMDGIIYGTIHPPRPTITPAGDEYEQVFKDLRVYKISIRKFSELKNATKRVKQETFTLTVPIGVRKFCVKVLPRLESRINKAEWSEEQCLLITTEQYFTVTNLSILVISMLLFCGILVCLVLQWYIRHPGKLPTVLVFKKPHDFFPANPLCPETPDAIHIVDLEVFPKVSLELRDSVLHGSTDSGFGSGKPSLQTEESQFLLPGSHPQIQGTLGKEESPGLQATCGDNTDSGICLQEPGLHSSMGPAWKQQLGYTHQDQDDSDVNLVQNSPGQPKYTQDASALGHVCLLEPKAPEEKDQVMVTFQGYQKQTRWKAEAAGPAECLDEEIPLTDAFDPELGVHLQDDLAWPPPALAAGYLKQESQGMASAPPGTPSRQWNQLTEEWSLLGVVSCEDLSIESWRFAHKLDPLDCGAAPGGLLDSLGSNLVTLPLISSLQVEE
T1 sequence (looked up) 2: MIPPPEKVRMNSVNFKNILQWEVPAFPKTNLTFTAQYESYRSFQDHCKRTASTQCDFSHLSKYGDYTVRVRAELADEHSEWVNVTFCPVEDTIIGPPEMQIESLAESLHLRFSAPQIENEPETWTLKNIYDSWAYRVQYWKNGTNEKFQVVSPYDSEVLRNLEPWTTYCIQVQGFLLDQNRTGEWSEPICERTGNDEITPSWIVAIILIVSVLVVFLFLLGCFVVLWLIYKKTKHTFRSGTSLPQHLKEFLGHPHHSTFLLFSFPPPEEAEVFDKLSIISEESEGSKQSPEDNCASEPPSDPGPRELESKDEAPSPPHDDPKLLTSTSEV

B1: mouse IL-10 (ligand, UniProt P18893 19-178, looked up)
chain: SRGQYSREDNNCTHFPVGQSHMLLELRTAFSQVKTFFQTKDQLDNILLTDSLMQDFKGYLGCQALSEMIQFYLVEVMPQAEKHGPEIKEHLNSLGEKLKTLRMRLRRCHRFLPCENKSKAVEQVKSDFNKLQDQGVYKAMNEFDIFINCIEAYMMIKMKS
B2: 5KPEG-mIL-10 (ligand, mouse, UniProt P18893 19-178, looked up)
chain: B1 chain
modifications: conjugated to 5 kD PEG; site of attachment not stated

Target: T1, mouse IL-10 receptor (IL-10R) on T cells and B cells of C57BL/6 mouse splenocytes (mouse)
Assay: cell-based or functional assay

Binder | STAT3 phosphorylation (pY705), flow cytometry, B cells of C57BL/6 mouse splenocytes (CD19 + B cells), EC50 [pM] | STAT3 phosphorylation (pY705), flow cytometry, CD3+ T cells of C57BL/6 mouse splenocytes, EC50 [pM]
B1 | 55.3 | 91.4
B2 | 120 | 390

From patent publication US20230087600A1
